Experimental data: publication PMC12775393

Legend:
[1] = target: E. coli MRE600 tight-couple 70S ribosome (natural), translating the V50 hairpin mRNA (E. coli (endogenous in MRE600)) (UniProt P0A7K2); test: optical tweezers with single-molecule fluorescence detection (fleezers); hairpin unwinding assay as a1, GDPNP:GTP ratio 1:9 at constant total nucleotide concentration; slow population of a bi-exponential fit
[2] = target: E. coli MRE600 tight-couple 70S ribosome (natural), translating the V50 hairpin mRNA (E. coli (endogenous in MRE600)) (UniProt P0A7K2); test: optical tweezers with single-molecule fluorescence detection (fleezers); hairpin unwinding assay; ribosome stalled on the V50 mRNA hairpin tethered between two beads at ~14 pN (13.5-14.5 pN); 10 nM Cy3-labeled EF-G in the translation mix, 1 mM GTP, 1x TLC buffer (40 mM HEPES pH 7.5, 60 mM NH4Cl, 10 mM Mg(OAc)2, 6 mM βME)
[3] = target: E. coli MRE600 tight-couple 70S ribosome (natural), translating the V50 hairpin mRNA (E. coli (endogenous in MRE600)) (UniProt P0A7K2); test: optical tweezers with single-molecule fluorescence detection (fleezers); hairpin unwinding assay as a1, with a mixture of 1 mM GTP and 0.5 mM GTPγS; slow population of a bi-exponential fit
[4] = target: E. coli MRE600 tight-couple 70S ribosome (natural), translating the V50 hairpin mRNA (E. coli (endogenous in MRE600)) (UniProt P0A7K2); test: optical tweezers with single-molecule fluorescence detection (fleezers); hairpin unwinding assay as a1, GDPNP:GTP ratio 3:1 at constant total nucleotide concentration; slow population of a bi-exponential fit
[5] = target: S16-biotinylated E. coli 70S ribosome, translating the hairpin-less mRNA (E. coli) (UniProt P0A7K2); test: optical tweezers with single-molecule fluorescence detection (fleezers); assisting force assay; ribosome tethered by biotinylated S16 to one bead and the 5' end of a hairpin-less mRNA to the other, 9-12 pN; Cy3-labeled EF-G in solution, GTP (1 mM stated for the H92Q and H92A mutants), 1x TLC buffer
[6] = target: E. coli MRE600 tight-couple 70S ribosome (natural), translating the V50 hairpin mRNA (E. coli (endogenous in MRE600)) (UniProt P0A7K2); test: optical tweezers with single-molecule fluorescence detection (fleezers); hairpin unwinding assay as a1, with a mixture of 1 mM GTP and 0.5 mM GDPNP; slow population of a bi-exponential fit

Row | Substance | τ release, slow (GDPNP) population [1] | mean dwell time of unproductive binding events (τ unproductive) [2] | mean total dwell time of EF-G on the ribosome (τ unwinding + τ release) [2] | τ release (time between hairpin unwinding and EF-G release) [2] | τ release, slow (GTPγS) population [3] | τ release, slow (GDPNP) population [4] | mean total dwell time of EF-G on the ribosome (τpre + τ post) [5] | τ release, slow (GDPNP) population [6] | τ post (time between the mRNA step and EF-G unbinding) [5]
1 | Cy3-labeled EF-G, single-cysteine variant EF-G(S73C) (from UniProt P0A6M8 1-704) (enzyme) | 2.5 s | 300 ms | 445 ms | 0.38 s | 1.8 s | 17 s | 308 ms | 8.5 s | –
2 | Cy3-labeled H92A EF-G (made from EF-G(S73C)) (from UniProt P0A6M8 1-704) (enzyme) | – | – | – | 20 s | – | – | – | – | > 20 s
3 | Cy3-labeled H92Q EF-G (made from EF-G(S73C)) (from UniProt P0A6M8 1-704) (enzyme) | – | – | – | 2 s | – | – | – | – | –
